One test deals with S2P6 (human). In words: BLI. (In general: In BLI a coated tip is dipped into the sample, and binding shifts an interference pattern.)
The target in test [1] is SARS-CoV-2 S-2P protein (SARS-CoV-2 | bacteriophage T4).

Sequence of S2P6 (human) (VH, as listed by the source, chain 1 of 2): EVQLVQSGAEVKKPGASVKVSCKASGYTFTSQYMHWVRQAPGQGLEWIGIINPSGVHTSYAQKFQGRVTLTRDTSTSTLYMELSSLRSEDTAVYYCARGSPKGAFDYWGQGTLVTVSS
Sequence of S2P6 (human) (VL, as listed by the source, chain 2 of 2): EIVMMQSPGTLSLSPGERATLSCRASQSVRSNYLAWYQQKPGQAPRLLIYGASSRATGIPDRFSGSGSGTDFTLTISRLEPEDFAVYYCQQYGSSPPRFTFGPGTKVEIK
Sequence of S2P6 (antibody) (VH): as the sequence (VH, as listed by the source, chain 1 of 2) above
Sequence of S2P6 (antibody) (VL): as the sequence (VL, as listed by the source, chain 2 of 2) above

“SARS-CoV-2 S-2P protein (domain or fragment)”: in the test with S2P6 (human), the Kd (usually a measure of binding affinity in units of concentration) was 1.3 nM and the on-rate (kon) (usually the rate constant with which the complex forms) turned out to be 559000 M⁻¹ s⁻¹.

In test [1], S2P6 (antibody) showed an IC50 of neutralisation of SARS-CoV-2 pseudovirus (HeLa-hACE2 cells) of 6.16 µg/mL.

(Values after PMC13480645.)
